Here are results for one substance from PMC9065602, “Characterization of Polymer Degrading Lipases, LIP1 and LIP2 From Pseudomonas chlororaphis PA23” (Frontiers in Bioengineering and Biotechnology, 2022).

As usually defined, the Km is the concentration of substrate that gives half-maximal velocity.

This data set has as its system CCCCCCCC(=O)Oc1ccc([N+](=O)[O-])cc1. As to the kind of experiment: purified protein. The class given is biochemical, Pseudomonas chlororaphis. The conditions noted are these: 0.1-3.0 mM substrate, optimal conditions (pH 8.0, 40 °C).

As for LIP2 (Pseudomonas chlororaphis), the Km is 286 µM.
